Reference: patent US20100129369A1 (Eli Lilly, published 2010)

How the values were obtained:
human c-Met [1] = target: T1, human c-Met (human, UniProt P08581 25-1390); assay: cell-based or functional assay
human c-Met [2] = target: T1, human c-Met; assay: cell-based or functional assay; remark: listed apart in the source
Human c-Met-Flis-Fc ECD [3] = target: T2, Human c-Met-Flis-Fc ECD (human); assay: ELISA, coated ECD-Fc, antibody 0.002 ng/mL
T2 construct: also called human c-Met extracellular domain (ECD)-Fc-Flis fusion; Human cMet-ECD-Fc-Flis
Protocol: (§1) Wells of 96-well EIA/RIA high binding plates (Costar, #2592) are coated with 100 μL of 1 μg/mL human c-Met extracellular domain (ECD)-Fc-Flis fusion (SEQ ID NO:72), RON-ECD-Fc (R&D Systems, #1947-MS), or PlexinA2-ECD-Fc (Abnova, Taipei, Taiwan #H00005362-P01) in coating buffer (BioFX Labs, # COAT-1000-01) overnight at 4° C. […] After the plates are washed, 100 μL/well of substrate solution (BioFx, #TMBW-1000-01) are added and the plates are incubated for 10 min. at room temperature. 100 μL/well of stop solution (BioFx, # LSTP-1000-01) are added to stop the reaction. The colorimetric signals are developed and read at 450 nm using a SpectraMax 190 plate reader (Molecular Devices, Sunnyvale, Calif.). c-Met antibody binding to c-Met, RON and PlexinA2 ECDs is proportional to color signal production.

Human c-Met-Flis-Fc ECD [4] = target: T2, Human c-Met-Flis-Fc ECD; assay: ELISA, coated ECD-Fc, antibody 12.860 ng/mL
Protocol: as §1

Human c-Met-Flis-Fc ECD [5] = target: T2, Human c-Met-Flis-Fc ECD; assay: ELISA, coated ECD-Fc, antibody 0.060 ng/mL
Protocol: as §1

Human c-Met-Flis-Fc ECD [6] = target: T2, Human c-Met-Flis-Fc ECD; assay: ELISA, coated ECD-Fc, antibody 462.963 ng/mL
Protocol: as §1

Human c-Met-Flis-Fc ECD [7] = target: T2, Human c-Met-Flis-Fc ECD; assay: ELISA, coated ECD-Fc, antibody 16666.667 ng/mL
Protocol: as §1

Human c-Met-Flis-Fc ECD [8] = target: T2, Human c-Met-Flis-Fc ECD; assay: ELISA, coated ECD-Fc, antibody 0.357 ng/mL
Protocol: as §1

Human c-Met-Flis-Fc ECD [9] = target: T2, Human c-Met-Flis-Fc ECD; assay: ELISA, coated ECD-Fc, antibody 2777.778 ng/mL
Protocol: as §1

Human c-Met-Flis-Fc ECD [10] = target: T2, Human c-Met-Flis-Fc ECD; assay: ELISA, coated ECD-Fc, antibody 2.143 ng/mL
Protocol: as §1

Human c-Met-Flis-Fc ECD [11] = target: T2, Human c-Met-Flis-Fc ECD; assay: ELISA, coated ECD-Fc, antibody 0.010 ng/mL
Protocol: as §1

Human c-Met-Flis-Fc ECD [12] = target: T2, Human c-Met-Flis-Fc ECD; assay: ELISA, coated ECD-Fc, antibody 77.160 ng/mL
Protocol: as §1

Human c-Met-Flis-Fc ECD [13] = target: T2, Human c-Met-Flis-Fc ECD; assay: ELISA, coated ECD-Fc, antibody 0.000 ng/mL
Protocol: as §1

Human c-Met-Flis-Fc ECD [14] = target: T2, Human c-Met-Flis-Fc ECD; assay: SPR Biacore, antibody captured, ECD-Fc analyte, 1:1 model
Protocol: (§2) A Biacore® 2000 instrument is used to measure the binding kinetics of c-Met antibodies to human, cynomolgus monkey, and rat c-Met ECDs. Measurements are performed at 25° C. Samples are dissolved in HBS-EP buffer (150 mM sodium chloride, 3 mM EDTA, 0.005% (w/v) surfactant P-20, and 10 mM N-2-hydroxyethylpiperazine-N′-2-ethanesulfonic acid (HEPES) at pH 7.4; #BR-1001-88).
(§3) Binding is evaluated using multiple cycles. Each cycle is performed at a flow rate of 50 μL/min., and consists of the following steps: injection of about 10 μL of a c-Met antibody at 10 μg/mL aiming at a capture of 40-100 RUs, injection of 250 μL of human, cynomolgus, or rat c-Met-Flis-Fc ECD (starting at 100 nM and using two-fold serial dilutions for each cycle) followed by 20 min. for dissociation, and regeneration using about 30 μL of 10 mM glycine hydrochloride, pH 1.5. Association and dissociation rates for each cycle are evaluated using a “1:1 (Langmuir) binding” model in the BIAevaluation software, version 4.1.

[15] = target: T3, Cynomolgus Monkey c-Met-Flis-Fc ECD (cynomolgus monkey); assay: as above
T3 construct: also called Cynomolgus Monkey cMet-ECD-Fc-Flis; cynomolgus monkey c-Met ECD
Protocol: as §2, §3

Rat c-Met-Flis-Fc ECD = target: T4, Rat c-Met-Flis-Fc ECD (rat); assay: as above
T4 construct: also called Rat cMet-ECD-Fc-Flis; rat c-Met ECD
Protocol: as §2, §3

Human c-Met-Flis-Fc ECD [16] = target: T2, Human c-Met-Flis-Fc ECD; assay: ELISA, coated ECD-Fc, antibody 100000.000 ng/mL
Protocol: as §1

T3 sequence (chain, as listed by the source limits assumed): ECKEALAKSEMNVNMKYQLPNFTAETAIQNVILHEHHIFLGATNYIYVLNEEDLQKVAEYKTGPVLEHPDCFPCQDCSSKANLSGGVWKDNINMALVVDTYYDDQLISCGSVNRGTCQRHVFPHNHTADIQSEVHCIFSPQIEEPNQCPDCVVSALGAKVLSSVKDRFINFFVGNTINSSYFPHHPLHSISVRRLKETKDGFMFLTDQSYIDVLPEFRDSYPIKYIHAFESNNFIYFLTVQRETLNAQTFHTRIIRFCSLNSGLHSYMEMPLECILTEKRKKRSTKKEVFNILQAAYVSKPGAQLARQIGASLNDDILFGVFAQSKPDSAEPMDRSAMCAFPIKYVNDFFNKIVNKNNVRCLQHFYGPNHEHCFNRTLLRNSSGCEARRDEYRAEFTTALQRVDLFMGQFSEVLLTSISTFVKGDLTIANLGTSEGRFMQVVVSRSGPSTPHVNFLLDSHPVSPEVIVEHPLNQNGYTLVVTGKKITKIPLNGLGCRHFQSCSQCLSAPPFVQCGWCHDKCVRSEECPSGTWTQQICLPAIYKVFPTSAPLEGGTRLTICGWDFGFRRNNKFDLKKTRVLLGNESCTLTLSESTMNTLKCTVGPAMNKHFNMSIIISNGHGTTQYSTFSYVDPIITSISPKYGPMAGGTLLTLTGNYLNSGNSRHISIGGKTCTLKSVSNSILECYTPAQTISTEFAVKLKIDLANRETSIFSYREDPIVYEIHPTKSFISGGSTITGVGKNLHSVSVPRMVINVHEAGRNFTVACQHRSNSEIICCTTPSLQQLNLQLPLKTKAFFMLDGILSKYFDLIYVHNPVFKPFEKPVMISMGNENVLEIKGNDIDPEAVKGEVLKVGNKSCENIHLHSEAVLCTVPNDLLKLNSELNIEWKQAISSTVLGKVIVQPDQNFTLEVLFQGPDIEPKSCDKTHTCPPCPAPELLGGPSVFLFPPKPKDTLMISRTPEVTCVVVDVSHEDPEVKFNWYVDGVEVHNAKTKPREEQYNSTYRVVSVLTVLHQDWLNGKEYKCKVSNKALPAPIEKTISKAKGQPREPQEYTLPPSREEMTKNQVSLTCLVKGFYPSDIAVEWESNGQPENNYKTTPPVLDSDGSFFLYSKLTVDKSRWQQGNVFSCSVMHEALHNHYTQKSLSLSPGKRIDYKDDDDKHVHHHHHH
T4 sequence (chain, as listed by the source limits assumed): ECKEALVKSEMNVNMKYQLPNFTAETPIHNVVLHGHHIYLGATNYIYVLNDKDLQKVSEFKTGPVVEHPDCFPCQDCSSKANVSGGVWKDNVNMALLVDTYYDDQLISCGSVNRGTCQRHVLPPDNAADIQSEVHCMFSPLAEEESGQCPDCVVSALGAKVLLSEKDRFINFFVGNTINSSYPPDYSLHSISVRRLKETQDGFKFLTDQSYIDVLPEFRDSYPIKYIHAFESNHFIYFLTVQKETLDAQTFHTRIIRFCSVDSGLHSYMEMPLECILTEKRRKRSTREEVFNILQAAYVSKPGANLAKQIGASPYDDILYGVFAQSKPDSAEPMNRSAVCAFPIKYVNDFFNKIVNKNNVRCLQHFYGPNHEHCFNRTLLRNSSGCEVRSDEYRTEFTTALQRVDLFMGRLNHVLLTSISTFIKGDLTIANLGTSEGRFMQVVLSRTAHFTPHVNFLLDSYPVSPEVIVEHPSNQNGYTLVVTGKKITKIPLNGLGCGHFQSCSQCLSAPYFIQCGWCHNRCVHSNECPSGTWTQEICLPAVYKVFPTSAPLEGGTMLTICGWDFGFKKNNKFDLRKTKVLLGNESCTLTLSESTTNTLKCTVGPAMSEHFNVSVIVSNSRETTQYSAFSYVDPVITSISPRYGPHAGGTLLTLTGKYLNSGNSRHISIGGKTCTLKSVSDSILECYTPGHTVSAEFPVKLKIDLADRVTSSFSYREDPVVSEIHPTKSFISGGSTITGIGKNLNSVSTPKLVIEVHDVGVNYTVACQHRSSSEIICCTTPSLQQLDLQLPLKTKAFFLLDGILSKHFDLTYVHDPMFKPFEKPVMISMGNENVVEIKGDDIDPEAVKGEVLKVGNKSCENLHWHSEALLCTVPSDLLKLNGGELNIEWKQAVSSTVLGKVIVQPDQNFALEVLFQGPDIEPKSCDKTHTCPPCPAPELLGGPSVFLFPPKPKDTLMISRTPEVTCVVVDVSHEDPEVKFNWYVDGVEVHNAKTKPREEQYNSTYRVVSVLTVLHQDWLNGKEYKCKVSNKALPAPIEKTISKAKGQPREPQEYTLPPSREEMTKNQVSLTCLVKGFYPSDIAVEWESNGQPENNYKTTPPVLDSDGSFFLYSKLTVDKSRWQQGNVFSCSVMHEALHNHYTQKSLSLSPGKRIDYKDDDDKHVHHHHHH
T2 sequence (chain, as listed by the source limits assumed): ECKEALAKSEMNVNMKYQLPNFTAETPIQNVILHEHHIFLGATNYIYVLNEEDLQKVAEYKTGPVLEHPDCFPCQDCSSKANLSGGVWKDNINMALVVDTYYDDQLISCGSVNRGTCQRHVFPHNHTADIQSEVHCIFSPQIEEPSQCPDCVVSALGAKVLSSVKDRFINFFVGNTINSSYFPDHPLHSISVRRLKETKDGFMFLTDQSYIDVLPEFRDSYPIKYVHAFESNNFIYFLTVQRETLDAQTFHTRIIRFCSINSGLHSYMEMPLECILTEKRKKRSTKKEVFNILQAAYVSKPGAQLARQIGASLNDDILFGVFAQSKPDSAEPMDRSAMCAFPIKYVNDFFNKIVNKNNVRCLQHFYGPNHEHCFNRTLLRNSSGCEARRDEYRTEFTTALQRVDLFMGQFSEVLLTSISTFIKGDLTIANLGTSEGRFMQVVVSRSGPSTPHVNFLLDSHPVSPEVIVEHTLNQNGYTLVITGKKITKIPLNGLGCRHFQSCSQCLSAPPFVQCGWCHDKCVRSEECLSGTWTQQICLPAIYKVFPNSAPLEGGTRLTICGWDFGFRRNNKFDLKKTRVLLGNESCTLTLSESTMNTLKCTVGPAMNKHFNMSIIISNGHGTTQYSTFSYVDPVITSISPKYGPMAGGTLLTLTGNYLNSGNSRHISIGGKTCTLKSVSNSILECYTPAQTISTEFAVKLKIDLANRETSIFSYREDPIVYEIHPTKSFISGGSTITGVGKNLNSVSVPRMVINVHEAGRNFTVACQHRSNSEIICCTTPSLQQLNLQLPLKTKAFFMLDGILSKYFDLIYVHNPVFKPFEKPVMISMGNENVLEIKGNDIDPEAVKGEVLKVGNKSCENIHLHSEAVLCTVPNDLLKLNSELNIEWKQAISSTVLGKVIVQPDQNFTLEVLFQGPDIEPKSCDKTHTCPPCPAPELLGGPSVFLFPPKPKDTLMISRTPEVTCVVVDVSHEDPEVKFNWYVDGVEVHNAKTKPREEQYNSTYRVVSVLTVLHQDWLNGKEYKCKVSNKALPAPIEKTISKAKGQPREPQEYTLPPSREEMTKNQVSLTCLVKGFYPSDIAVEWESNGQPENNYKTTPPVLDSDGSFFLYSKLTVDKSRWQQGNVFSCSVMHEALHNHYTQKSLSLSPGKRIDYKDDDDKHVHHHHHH
T1 sequence (P08581 25-1390): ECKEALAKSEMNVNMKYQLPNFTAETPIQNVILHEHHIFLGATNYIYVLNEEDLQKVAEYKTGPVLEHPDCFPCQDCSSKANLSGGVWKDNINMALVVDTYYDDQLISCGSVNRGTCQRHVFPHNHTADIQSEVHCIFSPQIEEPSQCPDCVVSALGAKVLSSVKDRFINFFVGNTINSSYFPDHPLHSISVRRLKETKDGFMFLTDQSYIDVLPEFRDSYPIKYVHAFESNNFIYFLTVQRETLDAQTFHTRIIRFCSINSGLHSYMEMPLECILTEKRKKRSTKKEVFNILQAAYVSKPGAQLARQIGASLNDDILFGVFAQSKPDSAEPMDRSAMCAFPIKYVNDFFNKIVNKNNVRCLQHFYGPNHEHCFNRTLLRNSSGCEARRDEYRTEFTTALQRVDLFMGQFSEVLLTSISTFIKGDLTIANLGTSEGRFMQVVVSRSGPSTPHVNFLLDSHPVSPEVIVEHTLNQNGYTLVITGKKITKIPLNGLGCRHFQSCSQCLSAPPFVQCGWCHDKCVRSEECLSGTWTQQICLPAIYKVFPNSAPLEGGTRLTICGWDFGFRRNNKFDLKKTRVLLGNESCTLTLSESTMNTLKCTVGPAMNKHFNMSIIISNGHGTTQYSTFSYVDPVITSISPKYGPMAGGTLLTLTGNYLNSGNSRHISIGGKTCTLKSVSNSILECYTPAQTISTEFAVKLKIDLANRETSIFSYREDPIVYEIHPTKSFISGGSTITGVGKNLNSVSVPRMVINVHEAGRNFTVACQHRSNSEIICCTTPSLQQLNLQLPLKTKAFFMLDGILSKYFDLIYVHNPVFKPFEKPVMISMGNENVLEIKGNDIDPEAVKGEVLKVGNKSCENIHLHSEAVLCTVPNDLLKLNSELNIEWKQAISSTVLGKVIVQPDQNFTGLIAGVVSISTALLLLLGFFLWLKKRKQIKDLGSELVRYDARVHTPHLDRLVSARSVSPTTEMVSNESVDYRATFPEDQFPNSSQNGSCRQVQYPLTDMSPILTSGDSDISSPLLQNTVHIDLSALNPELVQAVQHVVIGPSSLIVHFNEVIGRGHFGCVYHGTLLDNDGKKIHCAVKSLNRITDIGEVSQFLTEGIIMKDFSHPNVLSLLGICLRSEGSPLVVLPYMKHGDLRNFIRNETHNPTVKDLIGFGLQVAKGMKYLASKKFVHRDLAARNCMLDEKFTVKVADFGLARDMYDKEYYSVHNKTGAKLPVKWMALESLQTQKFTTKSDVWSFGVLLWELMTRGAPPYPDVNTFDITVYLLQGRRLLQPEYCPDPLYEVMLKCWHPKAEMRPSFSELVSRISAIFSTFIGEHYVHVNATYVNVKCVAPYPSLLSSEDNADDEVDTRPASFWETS

Row | 3H-Thymidine Incorporation in Primary Human Hepatocytes in the Absence of HGF (average), dose 0.0032 ug/mL (human c-Met [1]) | 3H-Thymidine Incorporation in Primary Human Hepatocytes in the Absence of HGF (average), dose 0.016 ug/mL (human c-Met [1]) | 3H-Thymidine Incorporation in Primary Human Hepatocytes in the Absence of HGF (average), dose 0.08 ug/mL (human c-Met [1]) | 3H-Thymidine Incorporation in Primary Human Hepatocytes in the Absence of HGF (average), dose 0.4 ug/mL (human c-Met [1]) | 3H-Thymidine Incorporation in Primary Human Hepatocytes in the Absence of HGF (average), dose 2 ug/mL (human c-Met [1]) | 3H-Thymidine Incorporation in Primary Human Hepatocytes in the Absence of HGF (average), dose 10 ug/mL (human c-Met [1]) | 3H-Thymidine Incorporation in Caki-1 Cells in the Absence of HGF (AVG CPM), antibody dose 0.1 ng/mL (human c-Met [2]) | 3H-Thymidine Incorporation in Caki-1 Cells in the Absence of HGF (AVG CPM), antibody dose 0.4 ng/mL (human c-Met [2]) | 3H-Thymidine Incorporation in Caki-1 Cells in the Absence of HGF (AVG CPM), antibody dose 2.6 ng/mL (human c-Met [2]) | 3H-Thymidine Incorporation in Caki-1 Cells in the Absence of HGF (AVG CPM), antibody dose 15.4 ng/mL (human c-Met [2]) | 3H-Thymidine Incorporation in Caki-1 Cells in the Absence of HGF (AVG CPM), antibody dose 92.6 ng/mL (human c-Met [2]) | 3H-Thymidine Incorporation in Caki-1 Cells in the Absence of HGF (AVG CPM), antibody dose 555.6 ng/mL (human c-Met [2]) | 3H-Thymidine Incorporation in Caki-1 Cells in the Absence of HGF (AVG CPM), antibody dose 3333.3 ng/mL (human c-Met [2]) | 3H-Thymidine Incorporation in Caki-1 Cells in the Absence of HGF (AVG CPM), antibody dose 20000.0 ng/mL (human c-Met [2]) | Average A450 nm (Human c-Met-Flis-Fc ECD [3]) | Average A450 nm (Human c-Met-Flis-Fc ECD [4]) | Average A450 nm (Human c-Met-Flis-Fc ECD [5]) | Average A450 nm (Human c-Met-Flis-Fc ECD [6]) | Average A450 nm (Human c-Met-Flis-Fc ECD [7]) | Average A450 nm (Human c-Met-Flis-Fc ECD [8]) | Binder | other results
1 | 693 | 892 | 1280 | 1750 | 1870 | 2150 | 17700 CPM | 13600 CPM | 13300 CPM | 13800 CPM | 14700 CPM | 14500 CPM | 15800 CPM | 16100 CPM |  |  |  |  |  |  | D11-C27G3 (antibody, human IgG2, kappa, V domains shown) VH: QVQLVQSGAEVKKPGSSVKVSCKASGYTFTSRYIHWVRQAPGQGLEWMGWIYPVTGDTYYREPFKGRVTITADKSTSTAYMELSSLRSEDTAVYYCARGYGAFYYWGQGTLVTVSS VL: EIVLTQSPGTLSLSPGERATLSCSVSSSISSTNLHWYQQKPGQAPRLLIYGTSRLRSGIPDRFSGSGSGTDFTLTISRLEPEDFAVYYCQQWSSYPYSFGQGTKLEIKR | 
2 | 726 | 920 | 1460 | 1910 | 2570 | 3160 | 15900 CPM | 14600 CPM | 14900 CPM | 14600 CPM | 15300 CPM | 16600 CPM | 17900 CPM | 18600 CPM |  |  |  |  |  |  | D11-S17Y (antibody, human IgG2, kappa, V domains shown) VH: QVQLVQSGAEVKKPGSSVKVSCKASGYTFTSRYIHWVRQAPGQGLEWMGWIYPVTGDTYYNEKFKGRVTITADKSTSTAYMELSSLRSEDTAVYYCARGYGAFYYWGQGTLVTVSS VL: EIVLTQSPGTLSLSPGERATLSCSVSSSISSTNLHWYQQKPGQAPRLLIYGTSYLASGIPDRFSGSGSGTDFTLTISRLEPEDFAVYYCQQWSSYPYSFGQGTKLEIKR | 
3 |  |  |  |  |  |  |  |  |  |  |  |  |  |  | 0.271 A450 nm | 4 A450 nm | 0.46 A450 nm | 4 A450 nm | 4 A450 nm | 1.44 A450 nm | D11-C27G3 (antibody, human IgG2, kappa, V domains shown, Human engineered IgG2, kappa; also called D11-27G3) VH: QVQLVQSGAEVKKPGSSVKVSCKASGYTFTSRYIHWVRQAPGQGLEWMGWIYPVTGDTYYREPFKGRVTITADKSTSTAYMELSSLRSEDTAVYYCARGYGAFYYWGQGTLVTVSS VL: EIVLTQSPGTLSLSPGERATLSCSVSSSISSTNLHWYQQKPGQAPRLLIYGTSRLRSGIPDRFSGSGSGTDFTLTISRLEPEDFAVYYCQQWSSYPYSFGQGTKLEIKR | Average A450 nm (Human c-Met-Flis-Fc ECD [9]): 4 A450 nm; Average A450 nm (Human c-Met-Flis-Fc ECD [10]): 2.53 A450 nm; Average A450 nm (Human c-Met-Flis-Fc ECD [11]): 0.29 A450 nm; Average A450 nm (Human c-Met-Flis-Fc ECD [12]): 4 A450 nm; Average A450 nm (Human c-Met-Flis-Fc ECD [13]): 0.284 A450 nm; Kd (Human c-Met-Flis-Fc ECD [14]): 1.4 nM; koff (Human c-Met-Flis-Fc ECD [14]): 9e-05 s⁻¹; kon (Human c-Met-Flis-Fc ECD [14]): 64000 M⁻¹ s⁻¹; Kd [15]: 6.5 nM; koff [15]: 0.00032 s⁻¹; kon [15]: 50000 M⁻¹ s⁻¹; Kd (Rat c-Met-Flis-Fc ECD): 2.7 nM; koff (Rat c-Met-Flis-Fc ECD): 0.00034 s⁻¹; kon (Rat c-Met-Flis-Fc ECD): 130000 M⁻¹ s⁻¹; Average A450 nm (Human c-Met-Flis-Fc ECD [16]): 3.92 A450 nm
4 |  |  |  |  |  |  |  |  |  |  |  |  |  |  | 0.299 A450 nm | 3.93 A450 nm | 0.445 A450 nm | 4 A450 nm | 4 A450 nm | 1.31 A450 nm | D11-8B8 (antibody, human IgG2, kappa, V domains shown, Human engineered IgG2, kappa; expressed in HEK293 EBNA cells; also called Mab D11-8B8) VH: QVQLVQSGAEVKKPGSSVKVSCKASGYTFTSRYIHWVRQAPGQGLEWMGWIYPVTGDTYYIEKFKGRVTITADKSTSTAYMELSSLRSEDTAVYYCARGYGAFFYWGQGTLVTVSS VL: EIVLTQSPGTLSLSPGERATLSCSVSSSISSTNLHWYQQKPGQAPRLLIYGTSYLASGIPDRFSGSGSGTDFTLTISRLEPEDFAVYYCQQWSSYPYSFGQGTKLEIKR | Average A450 nm (Human c-Met-Flis-Fc ECD [9]): 4 A450 nm; Average A450 nm (Human c-Met-Flis-Fc ECD [10]): 2.42 A450 nm; Average A450 nm (Human c-Met-Flis-Fc ECD [11]): 0.304 A450 nm; Average A450 nm (Human c-Met-Flis-Fc ECD [12]): 4 A450 nm; Average A450 nm (Human c-Met-Flis-Fc ECD [13]): 0.297 A450 nm; Kd (Human c-Met-Flis-Fc ECD [14]): 0.5 nM; koff (Human c-Met-Flis-Fc ECD [14]): 5e-05 s⁻¹; kon (Human c-Met-Flis-Fc ECD [14]): 100000 M⁻¹ s⁻¹; Kd [15]: 2.9 nM; koff [15]: 0.000223 s⁻¹; kon [15]: 78000 M⁻¹ s⁻¹; Kd (Rat c-Met-Flis-Fc ECD): 0.89 nM; koff (Rat c-Met-Flis-Fc ECD): 0.00019 s⁻¹; kon (Rat c-Met-Flis-Fc ECD): 210000 M⁻¹ s⁻¹; Average A450 nm (Human c-Met-Flis-Fc ECD [16]): 4 A450 nm
